Data taken from patent publication US20170052184A1 (published 2017).
Ends that are not written are not given here.

How the values were obtained:
[1] = target: T1, WT1STHV biotin labeled HCV core peptide (hepatitis C virus, biotin labeled); assay: EIA; Ab 2000 ng/mL captured on anti-mouse Fc; bt-peptide 500 ng/mL
T1 peptide: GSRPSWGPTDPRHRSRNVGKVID

[2] = target: T2, Mut1T110N biotin labeled HCV core peptide (hepatitis C virus, biotin labeled); assay: as above
T2 peptide: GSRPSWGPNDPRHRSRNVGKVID

[3] = target: T3, Mut6T110S biotin labeled HCV core peptide (hepatitis C virus); assay: as above
[4] = target: T4, C113WT biotin labeled HCV core peptide (hepatitis C virus, also: biotin labeled, position not given here); assay: as above
T4 peptide: RGSRPSWGPTD

[5] = target: T5, C113T109N biotin labeled HCV core peptide (hepatitis C virus, also: biotin labeled, position not given here); assay: as above
T5 peptide: RGSRPSWGPND

[6] = target: T1, WT1STHV biotin labeled HCV core peptide; assay: EIA; Ab 0.977 ng/mL captured on anti-mouse Fc; bt-peptide 500 ng/mL
[7] = target: T2, Mut1T110N biotin labeled HCV core …; assay: as above
[8] = target: T3, Mut6T110S biotin labeled HCV core …; assay: as above
[9] = target: T1, WT1STHV biotin labeled HCV core peptide; assay: EIA; Ab 3.906 ng/mL captured on anti-mouse Fc; bt-peptide 500 ng/mL
[10] = target: T2, Mut1T110N biotin labeled HCV core …; assay: as above
[11] = target: T3, Mut6T110S biotin labeled HCV core …; assay: as above
[12] = target: T4, C113WT biotin labeled HCV core peptide; assay: as above
[13] = target: T5, C113T109N biotin labeled HCV core …; assay: as above
[14] = target: T1, WT1STHV biotin labeled HCV core peptide; assay: EIA; Ab 31.25 ng/mL captured on anti-mouse Fc; bt-peptide 500 ng/mL
[15] = target: T3, Mut6T110S biotin labeled HCV core …; assay: as above
[16] = target: T4, C113WT biotin labeled HCV core peptide; assay: as above
[17] = target: T5, C113T109N biotin labeled HCV core …; assay: as above
[18] = target: T1, WT1STHV biotin labeled HCV core peptide; assay: EIA; Ab 7.813 ng/mL captured on anti-mouse Fc; bt-peptide 500 ng/mL
[19] = target: T2, Mut1T110N biotin labeled HCV core …; assay: as above
[20] = target: T3, Mut6T110S biotin labeled HCV core …; assay: as above
[21] = target: T4, C113WT biotin labeled HCV core peptide; assay: as above
[22] = target: T5, C113T109N biotin labeled HCV core …; assay: as above
[23] = target: T1, WT1STHV biotin labeled HCV core peptide; assay: EIA; Ab 15.625 ng/mL captured on anti-mouse Fc; bt-peptide 500 ng/mL
[24] = target: T2, Mut1T110N biotin labeled HCV core …; assay: as above
[25] = target: T3, Mut6T110S biotin labeled HCV core …; assay: as above
[26] = target: T4, C113WT biotin labeled HCV core peptide; assay: as above
[27] = target: T5, C113T109N biotin labeled HCV core …; assay: as above

B1: HCV Neo4 monoclonal antibody (antibody, V domains shown)
VH: QIQLKESGPAVIKPSQSLSLTCIVSGFSITSSVYCWQWIRQPPGKGLEWMGRICYDGSVDYSPSITSRGTISRDTSLNKVFFQLSSVTNEDTAMYYCSRENHIDYYDTTYPSFDVWGAGTTVTVSS
VL: DIVLTQSPASLIVSLGQRATISCRASKSVNEYGYTYMHWYQQKPGLPPKLLIYLASNLDSGVPARFSGSGSGTDFTLNIHPVEEEDAATYYCQHSRELPYTFGGGTKLEIKR
- signal at 492 nm [1]: 1.9 OD 492 nm
- signal at 492 nm [2]: 0.0882 OD 492 nm
- signal at 492 nm [3]: 1.17 OD 492 nm
- signal at 492 nm [4]: 0.0766 OD 492 nm
- signal at 492 nm [5]: 0.059 OD 492 nm
- signal at 492 nm [6]: 0.22 OD 492 nm
- signal at 492 nm [7]: 0.0619 OD 492 nm
- signal at 492 nm [8]: 0.0644 OD 492 nm
- signal at 492 nm [9]: 0.669 OD 492 nm
- signal at 492 nm [10]: 0.0719 OD 492 nm
- signal at 492 nm [11]: 0.0847 OD 492 nm
- signal at 492 nm [12]: 0.0694 OD 492 nm
- signal at 492 nm [13]: 0.0717 OD 492 nm
- signal at 492 nm [14]: 1.67 OD 492 nm
- signal at 492 nm [15]: 0.48 OD 492 nm
- signal at 492 nm [16]: 0.0622 OD 492 nm
- signal at 492 nm [17]: 0.0815 OD 492 nm
- signal at 492 nm [18]: 1.04 OD 492 nm
- signal at 492 nm [19]: 0.0729 OD 492 nm
- signal at 492 nm [20]: 0.132 OD 492 nm
- signal at 492 nm [21]: 0.0731 OD 492 nm
- signal at 492 nm [22]: 0.0751 OD 492 nm
- signal at 492 nm [23]: 1.42 OD 492 nm
- signal at 492 nm [24]: 0.0771 OD 492 nm
- signal at 492 nm [25]: 0.25 OD 492 nm
- signal at 492 nm [26]: 0.0697 OD 492 nm
- signal at 492 nm [27]: 0.0736 OD 492 nm
